The source of these data is patent publication US20210107971A1 (UCB, published 2021).

Numbering of substitutions follows the chain as printed. In names and notes the source's numbering stands.

B1: 6470 rabbit Fab with heavy chain mutation H31K (Fab, V domains shown)
VH: QSVEESGGRLVTPGTPLTLTCTVSGIDLSSKDMYWVRQAPGKGLEYIGAIYASGSTYYASWAKGRFTISKTSTTVDLKMTSLTTEDTATYFCARIHYGNSGGLWGQGTLVTVSS
VL: AIVMTQTPSSKSVAVGDTVTINCQASQSVYKNNYLAWFQQKPGQPPKQLIYGASTLASGVPSRFKGSGSGTQFTLTISDVVCDDAATYYCAGYKGGRNDGFAFGGGTEVVVKR
B2: 6470 rabbit Fab with light chain mutation Y30W (Fab, V domains shown)
VH: B1 VH with K31H
VL: B1 VL with Y30W
B3: 6470 rabbit Fab with heavy chain mutation H31R (Fab, V domains shown)
VH: B1 VH with K31R
VL: B1 VL
B4: 6470 rabbit Fab with heavy chain mutation S55N (Fab, V domains shown)
VH: B1 VH with K31H, S55N
VL: B1 VL
B5: 6470 rabbit Fab with heavy chain mutation N99Q (Fab, V domains shown)
VH: B1 VH with K31H, N99Q
VL: B1 VL
B6: 6470 rabbit Fab with heavy chain mutation N99K (Fab, V domains shown)
VH: B1 VH with K31H, N99K
VL: B1 VL
B7: 6470 rabbit Fab with light chain mutation N33R (Fab, V domains shown)
VH: B1 VH with K31H
VL: B1 VL with N33R
B8: 6470 rabbit Fab with heavy chain mutation N99W (Fab, V domains shown)
VH: B1 VH with K31H, N99W
VL: B1 VL
B9: 6470 rabbit Fab with heavy chain mutation N99R (Fab, V domains shown)
VH: B1 VH with K31H, N99R
VL: B1 VL
B10: 6470 rabbit Fab with heavy chain mutation S53N (Fab, V domains shown)
VH: B1 VH with K31H, S53N
VL: B1 VL
B11: 6470 rabbit Fab with light chain mutation N33K (Fab, V domains shown)
VH: B1 VH with K31H
VL: B1 VL with N33K
B12: 6470 rabbit Fab with heavy chain mutation H31Q (Fab, V domains shown)
VH: B1 VH with K31Q
VL: B1 VL
B13: 6470 rabbit Fab with heavy chain mutation N99H (Fab, V domains shown)
VH: B1 VH with K31H, N99H
VL: B1 VL
B14: 6470gL3gH46 (antibody, V domains shown)
VH: EVQLLESGGGLVQPGGSLRLSCAASGIDLSSHDMYWVRQAPGKGLEYIGAIYASGSTYYASWAKGRFTISRDNSKNTVYLQMNSLRAEDTAVYYCARIHYGNSGGLWGQGTLVTVSS
VL: DIQMTQSPSSLSASVGDRVTITCQASQSVYKNNYLAWFQQKPGKAPKQLIYGASTLASGVPSRFSGSGSGTQFTLTISSLQPEDFATYYCAGYKGGRNDGFAFGGGTKVEIKR
B15: 6470gL6gH23 (antibody, V domains shown)
VH: B14 VH with A24V
VL: B14 VL with Q48S
B16: 6470gL3gH27 (antibody, V domains shown)
VH: B14 VH with A24V, G49S, R71K, N73S
VL: B14 VL
B17: 6470gL3gH35 (antibody, V domains shown)
VH: B14 VH with A24V, R71K, N73S, R97K
VL: B14 VL
B18: 6470gL3gH26 (antibody, V domains shown)
VH: B14 VH with A24V, I48V, R71K, N73S
VL: B14 VL
B19: 6470gL6gH36 (antibody, V domains shown)
VH: B14 VH with A24V, N73S, V78L
VL: B14 VL with Q48S
B20: 6470gL3gH50 (antibody, V domains shown)
VH: B14 VH with N73S, V78L
VL: B14 VL

In one experiment the target is T1, purified recombinant human alpha synuclein fibrils (human, UniProt P37840 1-140). In words: SPR, Biacore T200, as in Example 3; Fab injected.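 Further: ligands amine-coupled on CM5 chip flow cells, HBS-EP+ running buffer, kinetic data fitted with 1:1 model allowing local bulk contribution and global Rmax.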 On the technique in general: SPR reads the build-up and loss of mass on a sensor chip optically.
Description: (§1) Interaction kinetics were determined by using surface plasmon resonance technology on a Biacore T200 instrument. Three different ligands including recombinant full-length human alpha synuclein monomer, purified recombinant human alpha synuclein fibrils, and purified recombinant mouse alpha synuclein fibrils, prepared as described herein, were each immobilized on three different flow cells of a CM5 chip surface using amine-coupling chemistry. The three ligands were prepared in 10 mM NaAc, pH 3.5, and immobilized onto separate flow cell surfaces to reach an immobilization level of about 30 response units (RU) for alpha synuclein monomer, about 40 RU for human alpha synuclein fibrils, and about 300 RU for mouse alpha synuclein fibrils respectively, at a flow rate of 10 μI/min. The buffer HBS-EP+(GE healthcare Bio-Sciences AB) was used as running buffer for both ligand immobilization and kinetics assay. […] The surface was regenerated by one injection of 50 mM HCl for 90 s at 10 μI/min, and another injection of 50 mM HCl for 60 s at 10 μI/min. The data were analyzed using the Biacore T200 evaluation software (version 3.0) using the bivalent analyte model with assumed no bulk contribution (RI=0) and global Rmax for IgG format, and 1:1 model with flexible bulk contribution (local RI) and global Rmax.
The term Kd denotes the concentration at which binding is half-saturated. One may read the koff as a measure of how fast the partners let go of each other. The term kon denotes the second-order rate constant of association. As to B1, the Kd turned out to be 46.7 nM, the koff came out at 0.423 s⁻¹ and the on-rate (kon) worked out at 9.06e+06 M⁻¹ s⁻¹.

Consider B2, for which the Kd was 18.8 nM, the koff came to 0.0895 s⁻¹ and the kon came to 4.75e+06 M⁻¹ s⁻¹.

As for B3, the Kd amounted to 62.3 nM, the koff was determined as 0.373 s⁻¹ and the kon stood at 5.98e+06 M⁻¹ s⁻¹.

Consider B4, for which the Kd amounted to 1.4 nM, the koff is 0.013 s⁻¹ and the kon is 9.2e+06 M⁻¹ s⁻¹.

As to B5, the Kd stood at 42.4 nM, the koff turned out to be 0.425 s⁻¹ and the kon came to 1.03e+07 M⁻¹ s⁻¹.

Regarding B6, the dissociation constant (Kd) came to 20.7 nM, the koff came to 0.207 s⁻¹ and the kon worked out at 1.58e+07 M⁻¹ s⁻¹.

As to B7, the Kd was 2.9 nM, the off-rate constant (koff) was 0.0289 s⁻¹ and the kon is 9.98e+06 M⁻¹ s⁻¹.

Take B8: the Kd is 25.3 nM, the koff worked out at 0.134 s⁻¹ and the association rate constant (kon) was determined as 5.27e+06 M⁻¹ s⁻¹.

For the molecule B9, the Kd is 15.3 nM, the koff stood at 0.154 s⁻¹ and the kon stood at 1.89e+07 M⁻¹ s⁻¹.

Regarding B10, the Kd stood at 49.6 nM, the koff was 0.286 s⁻¹ and the kon is 5.75e+06 M⁻¹ s⁻¹.

Turning to B11, the Kd is 7.1 nM, the koff stood at 0.0498 s⁻¹ and the kon was determined as 6.93e+06 M⁻¹ s⁻¹.

With B12, the Kd is 12.4 nM, the koff amounted to 0.0972 s⁻¹ and the kon amounted to 7.83e+06 M⁻¹ s⁻¹.

For the molecule B13, the Kd was 0.4 nM, the koff came to 0.00401 s⁻¹ and the kon is 6.2e+06 M⁻¹ s⁻¹.

A further experiment concerns the target recombinant full-length human alpha synuclein monomer (human, UniProt P37840 1-140). The experiment is described as follows: SPR, Biacore T200, as in Example 3; Fab injected.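 Further: ligands amine-coupled on CM5 chip flow cells, HBS-EP+ running buffer, kinetic data fitted with 1:1 model allowing local bulk contribution and global Rmax.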
Description: as §1
As to B1, the Kd came to 152 nM, the koff was found to be 0.938 s⁻¹ and the kon turned out to be 6.17e+06 M⁻¹ s⁻¹.

Turning to B2, the Kd came to 50.4 nM, the koff was determined as 0.151 s⁻¹ and the kon was 2.99e+06 M⁻¹ s⁻¹.

For the molecule B3, the Kd is 1660 nM, the koff stood at 0.44 s⁻¹ and the kon amounted to 265000 M⁻¹ s⁻¹.

As to B4, the Kd amounted to 1.9 nM, the koff came out at 0.0191 s⁻¹ and the kon stood at 1.39e+07 M⁻¹ s⁻¹.

For the molecule B5, the Kd amounted to 1310 nM, the koff is 0.493 s⁻¹ and the kon was 375000 M⁻¹ s⁻¹.

As for B6, the dissociation constant Kd turned out to be 23.9 nM, the koff was determined as 0.189 s⁻¹ and the kon came out at 7.89e+06 M⁻¹ s⁻¹.

With B7, the koff stood at 0.0799 s⁻¹ and the on-rate (kon) was 1.92e+07 M⁻¹ s⁻¹.

Consider B8, for which the Kd came to 61.3 nM, the koff was 0.566 s⁻¹ and the association rate constant (kon) came to 9.22e+06 M⁻¹ s⁻¹.

Regarding B9, the Kd came out at 16.9 nM, the koff turned out to be 0.17 s⁻¹ and the association rate constant (kon) was determined as 1.22e+07 M⁻¹ s⁻¹.

As to B10, the Kd came out at 1130 nM, the koff amounted to 0.0517 s⁻¹ and the kon turned out to be 45600 M⁻¹ s⁻¹.

With B11, the Kd came to 15.2 nM, the koff stood at 0.0433 s⁻¹ and the kon is 2.84e+06 M⁻¹ s⁻¹.

As for B12, the Kd turned out to be 23.1 nM, the koff came out at 0.185 s⁻¹ and the kon came to 8e+06 M⁻¹ s⁻¹.

As to B13, the Kd worked out at 0.7 nM, the koff was found to be 0.00745 s⁻¹ and the kon was 1.33e+07 M⁻¹ s⁻¹.

A further experiment addresses T1, purified recombinant human alpha …. The experiment is described as follows: affinity for human alpha synuclein fibrils, IgG4P; method not given.
Turning to B14, the Kd came out at 0.316 nM.

As for B15, the Kd was determined as 0.547 nM.

Consider B16, for which the Kd came out at 22.3 nM.

As to B17, the equilibrium dissociation constant (Kd) amounted to 5.28 nM.

With B18, the Kd is 0.3 nM.

For the molecule B19, the Kd came out at 0.377 nM.

In the case of B20, the Kd is 0.58 nM.
